Test: soluble on expression in E. coli; label from the status in PepcDB or PDB records

Row | Sequence | soluble on expression in E. coli
1 | MNNVLILLDNPDDWKPYCETKSILTVSDYLKNKPVEKDRKLVINLSNDYSYNSEGYYCSLLAQTRGQRVIPDVDIINKLETGTGIRMDRSLQALCYQWIQKNGIKSDIWYLNIYFGKCREKGLERVARFIFENYPCPLLRVALNTHPKNQIESIQFLPLNRLDDEEQDFFANTLDNFNKKIWRAPKSAKAPRYSLAVLIDPKEKFPPSNKGALHKLSEVAKKMNIHVEMITEDDAMRLLEFDALFIRTTTSLNHYTFHLSQLAAQNGMVVIDDPLSIIRCTNKVYLKELFEKERIPAPKSTLIFQSNENSFEQISEQVGAPFILKIPDGSYSIGMKKVSNEEELKTSLELLFEKSAILLAQAFTPTEFDWRVGLLNGVPLYACKYYMAKGHWQIYCHYDSGRSRCGLVDTIPIYQVPRVVLDTAIKAANLIGKGLYGVDLKMVDDKAYVIEINDNPSIDHELEDAIIGDEMYYRLLNHFEQALEMKHY | not soluble
2 | MDNLETDRLILINYTLEMIQATINGTEALEKTSGYHVSPDWPGIDFFFYLPYVLENVKKDDKMIKWTRLVVLKTENKIIGEIGGQGNPDETGEIEIGYSIVPDYQNKGYMSEALISMIDWLEHQPVINRIFARCYEQNEASIQVLKHNHFVHIKEKDTEEKQGRVMMWEYPIKQT | not soluble
3 | MSLLLENCKLETGFSTVNQRIVATETASYDIRIENEVCTAVAPQLRPLENETVIDVNQQLVLPALREMHIHIDKTYFGGPWKACRPLTKGILTRIEEETWLLPEQLPTSLERACQVIEQYIQQGHYHIRSHCNVDPSIGTKHIEITKEAFSRYEQYITHEIVAFPQHGLLRSQVEPLMREALRMGATHVGGVDPALVDRHVDHSIAKIFELATTFNKKIDVHLHARDTLGLYEFNKFVDYTEQAKMFGKVTLSHALALGSLEEAAIRDIAQKFIETGIDLTSTVPIGMPTMPIPTLVEQGVKISVAHDSLTDHWSPFGSGNTIEKLNTAAQRFKISDEYRLNRLWGLASNFVTPLDPNGQQVWPNVGDSADFLLFNAESTAHVIARQQPIQQLILKGQLVEAVQKGEKEEGHHHHHH | soluble
4 | MSLSYPYYIVDAFAEEVFKGNPAAVYVLEKWLPEAVMQNIAIENNLSETAFTVKEGQSYALRWFTPEREIDLCGHATLATAFVLFNYYSVAEETLHFTSQSGPLAVTKKEEYYYLDFPYILPERIPILPEYEAALGTKIYEAYLGRDLFFVLKDEETVAKITPDFSALKALDLGVGVIVTASGDSVDFVSRTFFPKLRINEDPVCGSAHANLIPYWGKRLNQTTLSAYQVSPRGGFLTCEVKENRVIIGGTAKLFAKGEAYLPVEGGSHHHHHH | soluble
5 | MASFIDLSSADLSPLSGALHGPDRVARALLIQGGALVPPRPMLWPCAGDMLNGLHILGDLHAPDVDLLVAKRVVAGGSGAHLKLDDQLVYAEGAYPYYVQHWYQHDIARQAWDFDAPVTHRLDRAFVITHFNFVWGHWLTEMYPKLFVIRALNAAGITAPLLLPRTAPGYVARIVRMMLPDQEIVTYDPRDEAVEIGAALLPHMLNRNYVFHDFLRWNLEREALSFTKGGDADMLFVSRGGVRTAQSFRELENEAEIEGLAQEAGLTLVRPETLGWDQQARLFSRARLVAGEFGSGLHNALLSPQGCQVVSLNWLVEVQSRIGNFRRHDVGYILPADGQARLYSIEPQANQPFTIDPVEFRQKLAIAVDRAQARKAMAGWDDAPFPVDTPELRLLEHHHHHH | soluble
6 | MMNIFILEDDFIQQTRIESIVVGILKETRIPCNQLEVFSTPQKLFESIQERGDHQLYFLDIEIGEYTRCGLELAAAIRQKDPNAVIVFVTTHSEFAPISFKYKVSALDFIDKAGGQKQFKEQIEECIRYTYDMMSSRESKDMFLFETPQTRLKLPYKDILYFATATTPHKVCLWTQTERLEFYGNLSEIQAVAPKLFLCHRSYLVNLDKVVRIDKSKQLLYFENGDSCMVSRLKMKCLFERWEALR | not soluble
7 | RTFRHYDAYRSQSGTTGTDAARFILSQSGINDVGVQKISGDLTDNYNGQTKILSLSEATADSTSVAAIGVAAHECGHAVQDHVNYWPMRLRTALVP | not soluble
8 | MSLSFSMKIKNIPYYVATRVVKRIQSWLGLNTLGARAIVTNAEGHVLLVKHTYQPHWYLPGGGVKKGESTKAAVIRELHEEVGLVVAEQDVILFGIYHHKYLGVNDYPVIYIVKNFTSHVTHSGEIEQIGWFSLDALPEMVSPGTKRRLGEYFDNNPISEGHHHHHH | not soluble
9 | MGVVNVPSNGREKFKKNWKFCVGTGRLGLALQKEYLDHLKLVQEKIGFRYIRGHGLLSDDVGIYREVEIDGEMKPFYNFTYIDRIVDSYLALNIRPFIEFGFMPKALASGDQTVFYWKGNVTPPKDYNKWRDLIVAVVSHFIERYGIEEVRTWLFEVWNEPNLVNFWKDANKQEYFKLYEVTARAVKSVDPHLQVGGPAICGGSDEWITDFLHFCAERRVPVDFVSRHAYTSKAPHKKTFEYYYQELEPPEDMLEQFKTVRALIRQSPFPHLPLHITEYNTSYSPINPVHDTALNAAYIARILSEGGDYVDSFSYWTFSDVFEEMDVPKALFHGGFGLVALHSIPKPTFHAFTFFNALGDELLYRDGEMIVTRRKDGSIAAVLWNLVMEKGEGLTKEVQLVIPVSESAVFIKRQIVNEQYGNAWRVWKQMGRPRFPSRQAVETLRQVAQPHVMTEQRRATDGVIHLSIVLSKNEVTLIEIEQVRDETSTYVGLDDGEITSYSS | soluble
10 | SLIRGWLAEGERMKETSYYSYVVGELPKGCQYCVRGEKLVLFVTGVCPRNCFYCPLSPWRRKDVAYANERPIRKIEDIIEEAKIQEARGAGVTGGDPLARLNRTVEYIRTLKEEFGKKFHIHLYTTGILADKRALSMLYDAGLDEIRFHPDLFEPSSKFLNREIENLKNAFDFDWDVGGEVPAVPGFGDRIKWFAEILDKFGGKFLNINELEYSETNLSNILNRGFKLAGENSFAIKGSLELGLEILEWGEKNTSLYYHLCTAKLKDAVQLRNRLRRMAKNVAKPYMEITEDGTLRFGIAEYEDLEELYKFLVEEAEVPKEWLYINWEKKRIEMPVEVAEELAEAIEGDVKFYIVEEYPTWDRIEVERIPLNEG | soluble
11 | MVGWRIVRIATHPEVQGRGIGSWLLERLYEESVERGYDWLGSGFGINEQLLRFWLRNGFLVLHLSPD | not soluble
12 | MNTMEEKYILSDRGKVYYWIKESNSVFAKNLIFLPGLTANHHLFDFQIQYFSKNHNVLVWDAPAHGKSRPYLDFSYSNLVEELKVILDKQNMKKVVLIGQSAGGFVAQSFIVKYPNMVEGLMMIGTCPYGTDYYSKSDIFWLKQTEWMLKLFPDKLLRNIISKMCGATSEGRRSMLKMLEGYEKKELCHLMYLGFAGFIPEIQDLNIHCPVCLVVGDKDKTGKVRKYNEQWHNKTGYPLHIIKNASHNVNVDKPNELNQIMDIFIKQLNI | not soluble
13 | MRGSHHHHHHGMASHITYDLPVAIEDILEAKKRLAGKIYKTGMPRSNYFSERCKGEIFLKFENMQRTGSFKIRGAFNKLSSLTEAEKRKGVVACSAGNHAQGVSLSCAMLGIDGKVVMPKGAPKSKVAATCDYSAEVVLHGDNFNDTIAKVSEIVETEGRIFIPPYDDPKVIAGQGTIGLEIMEDLYDVDNVIVPIGGGGLIAGIAIAIKSINPTIKVIGVQAENVHGMAASYYTGEITTHRTTGTLADGCDVSRPGNLTYEIVRELVDDIVLVSEDEIRNSMIALIQRNKVITEGAGALACAALLSGKLDSHIQNRKTVSIISGGNIDLSRVSQITGLVDA | soluble
14 | MLVDGKLVCVTGAGGYIASWIVKLLLERGYTVRGTVRNPTDPKNNHLRELQGAKERLTLHSADLLDYEALCATIDGCDGVFHTASPMTDDPETMLEPAVNGAKFVIDAAAKAKVKRVVFTSSIGAVYMNPNRDTQAIVDENCWSDLDFCKNTKNWYCYGKMLAEQSAWETAKAKGVDLVVLNPVLVLGPPLQSAINASLVHILKYLTGSAKTYANLTQVYVDVRDVALGHVLVYEAPSASGRYILAETALHRGEVVEILAKFFPEYPLPTKCSDEKNPRAKPYKFTTQKIKDLGLEFKPIKQSLYESVKSLQEKGHLPLPQDSNQNEVIIES | soluble
15 | DPQSVETALNVAREGLVLLKNENNILPINPQKYKHIIVTGKNAHGYVHGGGSGAVVPFHYTNLFDGIQKEGKLNNVKVEYIDELDFMPSIMYTDDNLNEKGFHAEYFKNIHFEGAPVVKQTEKKINYSWAAGTELEGMPKDYFSVKWYSTMCVDETADYEFTLGGDDGYKLFINDQPIIDDWTPGGFRTTNVTKTLKAGEKYHVRVEYYQQGGGAGICFLWKRKNETQNKFADYLNKADLVIACFGHSSDTEGEASDRTFELPEVDKKMLASLSGCKKPVIGIVNAGGNIEMQKWEPSLKGLIWGFYGGQEAGTAIGEALFGKVNPSGKLPMTFEKKWEDSPAYNSYHDPDKDKHVAYTEGIFIGYRGYDKLKREVQYPFGYGLSYTTF | not soluble
16 | MEGSSSTIARKTWELENSILTVDSPDSTSDNIFYYDDTSQTRFQQEKPWENDPHYFKRVKISALALLKMVVHARSGGTIEIMGLMQGKTDGDTIIVMDAFALPVEGTETRVNAQDDAYEYMVEYSQTNKLAGRLENVVGWYHSHPGYGCWLSGIDVSTQRLNQQHQEPFLAVVIDPTRTVSAGKVEIGAFRTYSKGYKPPDEPVSEYQTIPLNKIEDFGVHCKQYYSLDVTYFKSSLDSHLLDLLWNKYWVNTLSSSPLLGNGDYVAGQISDLAEKLEQAESHLVQSRFGGVVPSSLHKKKEDESQLTKITRDSAKITVEQVHGLMSQVIKDELFNSMRQSNNKSPTDSSDPDPMITY | soluble
17 | MLKYQQIATEIETYIEEHQLQQGDKLPVLETLMAQFEVSKSTITKSLELLEQKGAIFQVRGSGIFVRKHKRKGYISLLSNQGFKKDLEDFNVTSKVIELDVRKPTPEAAENLNIGMDEDIYYVKRVRYINGQTLCYEESYYTKSIVTYLNNEIVSHSIFHYIREGLGLKIGFSDLFLHVGQLNEEEAEYLGLEAGLPKLYIESIFHLTNGQPFDYSKISYNYEQSQFVVQANSFLL | soluble
18 | SNAMKLYIYDHCPFCVKARMIFGLKNIPVELNVLQNDDEATPTRMIGQKMVPILQKDDSRYLPESMDIVHYVDNLDGKPLLTGKRNPAIEEWLRKVNGYVNQLLLPRFAKSAFDEFSTPAARQYFIRKKEASSGSFDNHLAHSAGLIKKIGDDLRLLDKLIVQPNAVNGELSEDDIHLFPLLRNLTLVAGIHWPTKVADYRDNMAKQTQINLLSSMAI | soluble
19 | MTELSAFPITRKWPAKHPERLQLYSLPTPNGVKVSIMLEEIGLAYEAHKVSFDNDDQLSPEFISLSANNKIPAILDPNGPGGQPLALFESGAILQYLAEKSGQLLSQDPAQRYQTLQWLMFQMGGIGPMFGQVGFFHFFAGKEYEDKRPRDRYVNESKRLLGVLDRHLKGRQWMAEEYSIADIAIFPWVRNLVERYNARDLVGFDQFKEVQRVLANFLERPAVQRGLKIPG | not soluble
20 | MGSDKIHHHHHHMFTSFAFVTGAFVLFGCDNGRNSDTICKNNPELCEDLHKDSWCRYEKGDLIRQRFILKTTPNPTGKQIYDQLRFLEVYSKCIELASGVQHKVNVQRTNDRLRAFGISVQNLEELQESTKGSQDPYLAYYHWSRLDDAKSLAVLIKAEKEGQISDPELLSKLAIYYLKTDAARAKKLYLDVLGMVDADHLDPDWLLGLATASRTLGDLDGSYLYSRANIALTKQSVNEAQMLALLTGDKTKAAMLDSEAEQLAKAVSSGNFAGSAIEKRLRAEIDTERAKIEPVAPLAQD | not soluble
21 | MGSDKIHHHHHHMPKLKLIGVDLGGTTFSVGLVSEDGKILKKVTRDTLVENGKEDVIRRIAETILEVSDGEEAPYVGIGSPGSIDRENGIVRFSPNFPDWHNVPLTDELAKRTGKKVFLENDANAFVLGEKWFGAGRGHDHIVALTLGTGIGGGVVTHGYLLTGRDGIGAELGHVVVEPNGPMCNCGTRGCLEAVASATAIRRFLREGYKKYHSSLVYKLAGSPEKADAKHLFDAARQGDRFALMIRDRVVDALARAVAGYIHIFNPEIVIIGGGISRAGEILFGPLREKVVDYIMPSFVGTYEVVASPLVEDAGILGAASIIKERIGG | not soluble
